Experiment [1] addresses T1, Kar1 peptide (budding yeast).
T1 peptide: KKRELIESKWHRLLFHDKK

Experiment [2] addresses T2, Bbp1-TAP (budding yeast, UniProt Q12365 1-385).
T2 sequence (looked up): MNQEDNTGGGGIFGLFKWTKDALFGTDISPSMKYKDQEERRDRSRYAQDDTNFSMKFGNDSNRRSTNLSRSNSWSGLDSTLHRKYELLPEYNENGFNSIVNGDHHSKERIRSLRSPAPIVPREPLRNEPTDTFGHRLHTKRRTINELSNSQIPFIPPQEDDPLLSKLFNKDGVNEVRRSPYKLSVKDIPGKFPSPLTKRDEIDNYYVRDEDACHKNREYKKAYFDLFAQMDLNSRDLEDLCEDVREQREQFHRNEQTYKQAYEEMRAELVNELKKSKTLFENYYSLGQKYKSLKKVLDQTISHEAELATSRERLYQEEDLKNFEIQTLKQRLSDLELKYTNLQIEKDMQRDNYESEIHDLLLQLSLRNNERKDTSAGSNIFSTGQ
As to the kind of experiment: pull-down.

B1: Cdc31-T110D (natural protein, budding yeast, UniProt P06704 1-161, looked up)
chain: MSKNRSSLQSGPLNSELLEEQKQEIYEAFSLFDMNNDGFLDYHELKVAMKALGFELPKREILDLIDEYDSEGRHLMKYDDFYIVMGEKILKRDPLDEIKRAFQLFDDDHDGKISIKNLRRVAKELGETLTDEELRAMIEEFDLDGDGEINENEFIAICTDS
As to B1, in experiment [1], the “fold lower ability to bind than wild-type Cdc31” value is around 10 fold.

B2: GST-Spc29 phosphorylated by 6His-Mps1 (natural protein, budding yeast, UniProt P33419 1-253, looked up)
chain: MDYSNFGNSASKKFQDDTLNRVRKEHEEALKKLREENFSSNTSELGNKKHYRAQERMSSPLHRLSPTGKSDDRKVKSPLDDKLRRQLREGNTRLPPPPFSSYGMPPTNRSNLDRIRRRTSSPVRTDKFASQNVIDDQRLEIKYLERIVYDQGTVIDNLTSRITRLESFILNSISDRGDKNFASLEHSRSFSGFPTNKTYGLQMGGLYENDMPYRRSSDNINKEGAREDRSSQIHIENESTEDILKILSSSFHN
modifications: phosphorylated in vitro by Mps1; sites identified by LC-MS/MS: T18, T159, S187 and T240
Turning to B2, the “fold binding against GST-Spc29 treated with kinase-dead mps1KD” value in experiment [2] was 5 fold.

B3: GST-Spc29, nonphosphorylated (natural protein, budding yeast, UniProt P33419 1-253, looked up)
chain: MDYSNFGNSASKKFQDDTLNRVRKEHEEALKKLREENFSSNTSELGNKKHYRAQERMSSPLHRLSPTGKSDDRKVKSPLDDKLRRQLREGNTRLPPPPFSSYGMPPTNRSNLDRIRRRTSSPVRTDKFASQNVIDDQRLEIKYLERIVYDQGTVIDNLTSRITRLESFILNSISDRGDKNFASLEHSRSFSGFPTNKTYGLQMGGLYENDMPYRRSSDNINKEGAREDRSSQIHIENESTEDILKILSSSFHN
For B3, in experiment [2], the binding result was “binds”.

The record behind these values is paper PMC2854372 (The Journal of Cell Biology, 2010).
